The text below walks through data of publication PMC11612176 (The EMBO Journal, 2024).

One test concerns the target T1, ComM (Legionella pneumophila, UniProt A0A3A6V972).
T1 construct: gene yifB
The settings on record: 5 mM AMPPNP, dsDNA/ssDNA hybrid, pH 8.0, 37 °C incubation; active site at interface between adjacent subunits.

For test [1], the target named is ComM from L. pneumophila fused to a C-terminal His6-tag (Legionella pneumophila) (UniProt Q5ZXZ0). As to the kind of experiment: cryo-EM structure.
Test [2] has the same target. As to the kind of experiment: cryo-EM structure. The source holds these as a separate data set.
Test [3] has as its target RadA R301A mutant from S. pneumoniae (Streptococcus pneumoniae) (UniProt Q8DRP0). As to the kind of experiment: not stated; oligomeric state of RadA as purified for the biochemical assays.
Test [4] addresses RadA from S. pneumoniae (Strep-tagged, for cryoEM) (Streptococcus pneumoniae) (UniProt Q8DRP0). As to the kind of experiment: cryo-EM structure; 7 uM RadA with 10 uM gapped hybrid DNA (combination CD) and 5 mM ATP-gamma-S, 30 min at 37 °C; Hepes 50 mM pH 8.0, NaCl 100 mM.

Read-outs that look alike come from different tables or passages of the source.

In the case of `Nc1ncnc2c1ncn2[C@@H]1O[C@H](COP(=O)(O)OP(=O)(O)NP(=O)(O)O)[C@@H](O)[C@H]1O` [AMPPNP], on ComM, the “cryoEM structure, 3.1 Å” value is “AMPPNP, which is located at the interface between two adjacent subunits”.

The stoichiometry N is a count of units in the complex or per binding partner. For the compound “ComM from L. pneumophila fused to a C-terminal His6-tag (from UniProt Q5ZXZ0 1-503) (enzyme)”, the stoichiometry N in test [1] turned out to be 6; in test [2] it was 12.

In test [3], “RadA R301A mutant from S. pneumoniae (from UniProt Q8DRP0) (enzyme)” returned a stoichiometry N of 6.

On to “RadA from S. pneumoniae (Strep-tagged, for cryoEM) (from UniProt Q8DRP0 1-420) (enzyme)”, for which the stoichiometry N in test [4] turned out to be 6.
